Results published in US20170173114A1, “METHODS AND COMPOSITIONS FOR INDUCTION OF UCP1 EXPRESSION” (Joslin Diabetes Center, Inc., priority 2014, published 2017).
“Also recorded” adds a separate entry of the source.

Experiments:
UCP1 = UCP1 mRNA expression (Q-RT-PCR) in WT-1 brown preadipocytes; format: cell-based, murine
Method: Total RNA was isolated with QIAzol lysis reagent (Qiagen, Valencia, Calif.) and purified by RNeasy Mini columns (Qiagen) following the manufacture's instructions. cDNA was prepared from total RNA using the Advantage RT-PCR kit (BD Biosciences, Palo Alto, Calif.) according to manufacturer's instructions. Diluted cDNA was used in a PCR reaction with SYBR Green Master Mix (Applied Biosystems, Foster City, Calif.) and primers specifically designed for detection of the gene of interest. PCR reactions were run in duplicate for each sample and quantitated in the ABI Sequence Detection System (Applied Biosystems). Data were expressed as arbitrary units after normalization to levels of expression of internal controls for each sample. Sequences of primers for specific genes are each obtained from the published literature or designed using publically available gene sequence databases. Unless otherwise indicated, gene expression data described in the examples below was obtained using QPCR.
The effect of FGF6 on differentiation of WT-1 murine brown preadipocytes was also examined. WT-1 cells can be induced to undergo brown adipocyte differentiation, characterized by lipid accumulation and expression of adipogenic and brown fat markers, as described above (Klein et al. (1999) J Biol Chem 274:34795; Tseng et al. (2005) Nat Cell Biol 7:601). WT-1 cells were treated with FGF6 in growth media (DMEM+10% FBS), a vehicle control (“control” or “C” referred to in FIGS. 3A-D), or induction media (“induction” or “I” referred to in FIGS. 3A-D) as described above for seven days. Following the treatment, cells were examined for the color of the culture media in combination with oil Red O staining, expression of adipogenic markers, expression of brown fat markers, immunofluorescent staining of cells with UCP1 and DPAI, and Western blot analysis to determine the presence of UCP1 and β-tubulin. The results are described in FIGS. 3A to 3D.
UCP1 mRNA expression in brown adipocyte cells was determined at FGF6 concentrations ranging from 0 to 300 ng/ml in the absence of induction cocktail.
In order to determine the length of time necessary to induce UCP1 expression upon exposure to of cells to FGF6, an experiment was performed whereby FGF6 was administered to brown preadipocytes at a concentration of 200 ng/ml and UCP1 expression was determined. FGF21 and a control were also used in the time course experiment. FGF21, a member of the endocrine FGF ligands that has been implicated in the browning of white fat (Fisher F. M. et al., Genes Dev. 26:271-281, 2012). […] FGF6 could acutely induce a significant increase of UCP1 expression as early as 4 hours after a 200 ng/ml dose, as described in FIG. 4B. At 24 hours, the fold-induction of UCP1 mRNA by FGF6 reached 700-fold higher than the untreated cells, as described in FIG. 4B.
To assess FGF6's role in the regulation of mitochondrial activity, FGF6 was stably expressed in WT-1 brown preadipocytes and 3T3-F442A white preadipocytes. Stable cells were generated by viral infection followed by drug selection.
FGF2, FGF6 and FGF9 were used at a dosage of 50 ng/mL, 100 ng/mL, 200 ng/mL or 300 ng/mL. FGF21 was used at the dosage of 50 ng/ml and 500 ng/mL. The concentration of BMP7 was 3.3 nM. RNA was isolated and UCP1 and PPARγ expression levels were evaluated by quantitative reverse transcription polymerase chain reaction (Q-RT-PCR) analysis after 24 hours (i.e., 1 day) (FIG. 14A), 2 days (FIG. 14B), 5 days (FIG. 14C) and 7 days (FIG. 14D) of treatment. All experiments were performed triplicate and the data are presented as mean+/−SEM.
FGF2, FGF6 and FGF9 were used at a dosage of 200 ng/mL. FGF21 was used at a dosage of 500 ng/mL. The concentration of BMP7 was 3.3 nM. mRNA was isolated and UCP1 and PPARγ expression levels were evaluated by quantitative reverse transcription polymerase chain reaction (Q-RT-PCR) analysis after 24 hours (i.e., 1 day), 2 days, 5 days and 7 days of treatment (FIG. 15). […]

UCP1 and PTGS2 = UCP1 and PTGS2 mRNA in WT-1 cells undergoing adipocyte differentiation; format: cell-based, murine; conditions: after induction media; 200 ng/mL FGF or 3.3 nM BMP7, 2 days
Method: In a separate experiment investigating the ability of FGF proteins to induce UCP1 expression in cells undergoing adipocyte differentiation, WT-1 preadipocyte cells were differentiated by culturing in growth media supplemented with insulin (20 nM) and triiodothyronine (T3, 1 nM) for 3 days, followed by incubation in an induction media (growth medium supplemented 20 nM insulin, 1 nM T3, 0.5 mM isobutyl-methylxanthine, 5 μM dexamethasone) for 2 days. The cell were then exposed to BMP7 (3.3 nM) or 200 ng/mL of FGF2, FGF6 or, FGF9 in growth media supplemented with insulin (20 nM) and triodothyronine (T3, 1 nM) for 2 additional days. Cells were harvested and UCP1 and PTGS2 mRNA expression levels were determined according to the quantitative RT-PCR assay described above. Experiments were performed in triplicate and the data presented as mean+/−SEM.

[1] = 0 to 300 ng/ml, absence of induction cocktail, day 7

B1: FGF6: fibroblast growth factor 6; recombinant human FGF from R&D Systems, or mouse FGF6 cDNA overexpressed by lentiviral vector (protein)
chain: KRQRRLYCNVGIGFHLQVLPDGRISGTHEENPYSLLEISTVERGVVSLFGVRSALFVAMNSKGRLYATPSFQEECKFRETLLPNNYNAYESDLYQGTYIALSKYGRVKRGSKVSPIMTVTHFLPRI
How did the “FGF6 concentration at which UCP1 gene expression plateaued” value (UCP1; [1]) turn out when B1 was run?
Its value is “about 200 ng/ml”.

What about the “UCP1 gene expression, dose response” value (UCP1; [1]) of the same molecule?
The value was “dose-dependent manner”.

What about the “earliest time of significant increase of UCP1 expression” value (UCP1; 200 ng/ml) of the same molecule?
Its value is 4 h.

And the “fold-induction of UCP1 mRNA over untreated cells” value (UCP1; 200 ng/ml, 24 hours)?
Its value is 700 fold.

And the “UCP1 levels with prolonged exposure” value (UCP1; 200 ng/ml, time course)?
The value was “continued to rise”.

What about the UCP1 expression level (UCP1; 50-300 ng/mL with insulin and T3, 1, 2, 5 and 7 days, dose-responsive) of the same molecule?
Its UCP1 expression level is “very high levels of UCP1”.

And the “UCP1 expression level, time course” value (UCP1; FGF2, FGF6, FGF9 200 ng/mL, FGF21 500 ng/mL, with insulin and T3, 1, 2, 5, 7 days)?
Its value is “very high levels of UCP1”.

What about the “UCP1 mRNA expression” value (UCP1; WT-1, 24 hours, vs vehicle) of the same molecule?
The value was “significantly induced”.

And the “UCP1 mRNA expression” value (UCP1; WT-1, growth media, seven days, vs control or induction media)?
Its value is “significantly increased; also recorded: extremely high levels”.

What about the “UCP1 expression over basal level” value (UCP1; constitutive overexpression of FGF6 in WT-1) of the same molecule?
The value was “greatly increased; also recorded: marked increases”.

And the “PTGS2 mRNA expression in cells undergoing adipocyte differentiation” value (UCP1 and PTGS2)?
The value was “able to induce”.

And the “UCP1 mRNA expression in cells undergoing adipocyte differentiation” value (UCP1 and PTGS2)?
Its value is “able to induce”.
